The results in this text go back to patent US20250326838A1 (CSPC MEGALITH BIOPHARMACEUTICAL, published 2025).

Changes are numbered by the printed parent chain.

Sequences and labels used below:
B1: 14A7 monoclonal antibody (antibody, V domains shown)
VH: DVQLQESGPGLVKPSQSLSLTCTVTGYSITSDFAWNWIRQFPGNKLEWMGYIRFSGSTTYKPTLKSRISITRDTSKNQFFLQLNSVTTEDSATYYCAREDYDGLFDYWGQGTTLTVTS
VL: DVLMTQTPLSLPVSLGDHASISCRSSQTILHSNGNTYLDWYLQKPGQSPKLLIYKVSNRFSGVPDRFSGSGSGTDFTLKISRVEAEDLGVYYCFQGSHVPYTFGGGTKLEIK
B2: 1-10E5 monoclonal antibody (antibody, V domains shown)
VH: DVKLVESGGGLVKPGGSLKLSCVVSGLTFSRYTMSWVRQTPEKRLEWVATISSGGNSTYYPDSVKGRFTISRDDAKDTLYLQMSSLKSEDTAMYYCTNYGYFFDYWGQGTTLTVSS
VL: DIQMTQSPASLSASVGETVTITCRASENIYSFLAWYQQKQGKSPQLLVYNAKTLAEGVPSRFSGSGSGTQFSLKINSLQPEDFGSYYCQHHYDRPLTFGAGTKLELK
B3: 1-7F4 monoclonal antibody (antibody, V domains shown)
VH: EVQLQQSGPELVKPGASVKMSCKASGYTFTTYVMHWVKQKPGQGLEWIGYINPYNDKTKYNEKFKGKATLTSDKSSSTAYMEVSRLTSEDSAVYYCGSGYDAMDYWGQGTSVTVSS
VL: DIQMTQSPASLSVSVGETVTITCRASENIYSHLAWYQQKQGKSPQLLIYSATNLADGVPSRFNGSGSGTQYSLKINSLQSEDFGSYYCQHFWGTPWTFGGGTKLEIK
B4: 1-15D1 monoclonal antibody (antibody, V domains shown)
VH: B3 VH with K57N, V83L, R85S
VL: B3 VL with T5A, A25T, I48V
B5: 1-10E5-IgG1 human-mouse chimeric anti-Siglec15 antibody (antibody, V domains shown)
VH: B2 VH
VL: B2 VL
B6: 1-7F4-IgG1 human-mouse chimeric anti-Siglec15 antibody (antibody, V domains shown)
VH: B3 VH
VL: B3 VL
B7: 1-15D1-IgG1 human-mouse chimeric anti-Siglec15 antibody (antibody, V domains shown)
VH: B3 VH with K57N, V83L, R85S
VL: B3 VL with T5A, A25T, I48V
B8: 5G12-IgG1 control antibody (antibody, V domains shown)
VH: QVQLQQPGAELVKPGASVKMSCKASGYTFTSYWITWVIQRPGQGLEWIGDIYCGSDTMHYNEKFKNKATLTVDTSSSTAYMQLSSLTSEDSAVYYCARWWDYGSSYDYFDYWGQGTTLTVSS
VL: DIKMTQSPSSMYASLGERVTITCKASQDINSYLSWFQQKPGKSPKTLIYRANRLVDGVPSRFSGSGSGQDYSLTISSLEYEDMGIYYCLQYDEFPYTFGGGTKLEIKR

The first assay addresses T1, His-tagged cynomolgus monkey Siglec15 protein (cynomolgus monkey, UniProt A0A2K5UY47 20-262).
T1 construct: not shown: His tag
T1 sequence: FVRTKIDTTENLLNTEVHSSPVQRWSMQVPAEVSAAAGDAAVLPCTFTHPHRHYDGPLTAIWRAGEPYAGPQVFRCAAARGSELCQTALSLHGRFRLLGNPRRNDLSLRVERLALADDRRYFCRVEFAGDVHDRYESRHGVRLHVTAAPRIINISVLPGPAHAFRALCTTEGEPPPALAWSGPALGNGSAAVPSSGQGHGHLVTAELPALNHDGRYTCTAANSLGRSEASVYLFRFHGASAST
The experiment in a line: ELISA, His-tagged cynomolgus monkey Siglec15 coated. Here is the method:
(§1) In order to evaluate the cross-species recognition properties of antibodies, the cross recognition of purified 1-15D1, 1-7F4, 14A7 and 1-10E5 monoclonal antibodies with human, cynomolgus monkey and mouse Siglec15 was tested. ELISA test was carried out by coating the microtiter plate with His-tagged human, cynomolgus monkey and mouse Siglec15 proteins and adding 1-15D1, 1-7F4, 14A7 and 1-10E5 antibodies at concentrations of 5000 ng/ml, 1666.7 ng/ml, 555.6 ng/ml, 185.2 ng/ml, 61.7 ng/ml, 20.6 ng/ml, 6.9 ng/ml, 2.3 ng/ml, 0.8 ng/ml, 0.25 ng/ml and 0.1 ng/ml respectively. […] The 14A7 and 1-10E5 antibodies could not only bind human and monkey Siglec15 proteins, but also bind mouse Siglec 15 proteins (FIG. 5). See Table 1 and FIG. 3-FIG. 5 for the EC₅₀ values of affinities for various Siglec15.
(ELISA stands for enzyme-linked immunosorbent assay.)
On to B1, for which the midpoint of the response, the EC50, lay at 8.51 ng/mL.

The molecule B2 came in with an EC50 of 9.49 ng/mL.

In the case of B3, the EC50 was 14.8 ng/mL.

On to B4, for which the EC50 came out at 9.07 ng/mL.

In another assay the target is T2, Siglec15-ECD-Fc (human).
T2 construct: Human Siglec15 extracellular domain fused to human IgG1 Fc, expressed in Hek293F; also called Siglec15-ECD-Fc fusion protein
The assay is described as follows: flow cytometry, single-point blocking by hybridoma supernatant of Siglec15-ECD-Fc (2 ug/ml) binding to LRRC4C-Hek293 cells. An excerpt: When the hybridoma cells grew to a certain amount, the Siglec15-His protein was coated onto a 96-well microtiter plate, and the mouse anti-Siglec15 serum was used as a positive control, and the hybridoma supernatant was screened by ELISA to select positive clones. […] The experimental results were shown in FIG. 2, and the specific method was as follows. The inventors conducted subclonal screening of these 10 strains of cells by the limiting dilution method, and finally kept the obtained monoclonal positive cell strains separately, and the supernatant of hybridoma cells was collected for purification by ProteinG.
By using the Lipofectamine system, the human LRRC4C (amino acid sequence set forth in SEQ ID NO: 5) plasmid was transfected into Hek293 cells. After 48 hours, G418 (800 μg/mL) was added to screen for 10-14 days to obtain a cell line stably expressing LRRC4C. Cells were collected, washed once with PBS buffer, blocked with PBS containing 2% FBS for 1 h at room temperature. The hybridoma cell supernatant was added in 50 μl/well; then the diluted Siglec 15-ECD-Fc protein (2 ug/ml) was added in 50 μl/well; mouse IgG was used as a negative control. The cells were incubated at 4° C. for 50 min, then washed three times with PBS buffer containing 0.2% FBS, then diluted with Alexa Fluor 488-labeled goat anti-human IgG in PBS containing 2% FBS, and incubated at 4° C. in the dark for 50 min, and washed three times with PBS buffer containing 0.2% FBS; finally, the cells were resuspended in 200 μL PBS and analyzed by flow cytometry. The average fluorescence reading of 10,000 cells for each sample was recorded, wherein the FITC fluorescence intensity was taken as the abscissa and the cell number as the ordinate, and the voltage parameters were adjusted so that the blank control was at the origin of the coordinate axis. The percentage result of hybridoma cell supernatant for blocking the binding of Siglec15-ECD-Fc protein to LRRC4C was calculated.
On the technique in general: A flow cytometer gives signals particle by particle.
As for B1, the binding result is reported as “binds”.

As to B2, the binding result is “binds”.

In the case of B3, the binding result is “binds”.

Consider B4, for which the binding result was “binds”.

The target of a further assay is T3, Siglec15-ECD-His (human, UniProt Q6ZMC9 20-263).
T3 construct: Human Siglec15 (Uniprot Q6ZMC9) extracellular domain with 7 His, expressed in Hek293F; also called Sigle15-ECD-His protein; Siglec15-His protein
T3 sequence: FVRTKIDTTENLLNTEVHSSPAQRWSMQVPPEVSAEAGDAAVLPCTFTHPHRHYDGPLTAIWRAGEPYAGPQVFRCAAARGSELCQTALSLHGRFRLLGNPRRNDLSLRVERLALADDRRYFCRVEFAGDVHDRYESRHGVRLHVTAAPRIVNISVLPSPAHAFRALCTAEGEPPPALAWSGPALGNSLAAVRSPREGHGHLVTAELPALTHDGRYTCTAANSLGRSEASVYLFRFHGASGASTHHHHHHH
The experiment in a line: ELISA, His-tagged human Siglec15 coated. Here is the method: as §1
B1 registered an EC50 of 8.97 ng/mL.

The molecule B2 had an EC50 of 7.21 ng/mL.

Turning to B3, the EC50 came out at 10 ng/mL.

B4 gave an EC50 of 4.98 ng/mL.

The target in another assay is His-tagged mouse Siglec15 protein (mouse). The experiment in a line: ELISA, His-tagged mouse Siglec15 coated. The method, then:
as §1
For the molecule B1, it took 9.99 ng/mL to reach a half-maximal effect (EC50).

B2: it took 9.61 ng/mL to reach a half-maximal effect (EC50).

The next assay concerns the target T3, Siglec15-ECD-His. The assay is described as follows: BLI (ForteBio), Siglec15-ECD-His on HIS1K sensor, antibody as analyte. Here is the method: In this experiment, a HIS1K biosensor was used to bind the ligand (Sigle15-ECD-His protein) followed by the analyte. Human Sigle15-ECD-His protein was diluted to 5 μg/ml and immobilized on the biosensor to a binding response threshold of 0.3 nm. After the 120s baseline step, the sensors were respectively immersed in the analytes of anti-Siglec15 antibodies 1-7F4-IgG1, 1-15D1-IgG1 and 1-10E5-IgG1 diluted in 2-fold gradient dilution with 0.02% PBST buffer, and the initial antibody concentration was 100 nM, 7 concentration gradients were set respectively. Human IgG1 (hIgG1) (B109801, Baiying Biotechnology Co., Ltd.) was used as a reference control, and 5G12-IgG1 was used as a positive control to conduct an affinity analysis experiment. The binding time of ligand and analyte was 120s, and the dissociation time was 300s. The raw data were imported into the analysis software, the zero concentration control was subtracted, and the reference channel was subtracted to eliminate the volume effect. The affinity data of the antigen and antibody were calculated by the analysis software regression according to the binding curve.
A general note: Biolayer interferometry detects binding as a change in optical thickness at a sensor tip.
Molecule B5 showed a Kd of less than 0.001 nM, a koff of less than 1e-07 s⁻¹ and a kon of 1.04e+06 M⁻¹ s⁻¹.

In turn, B6 returned a Kd of 0.06 nM, a koff of 3.42e-05 s⁻¹ and a kon of 570000 M⁻¹ s⁻¹.

The molecule B7 displayed a dissociation constant Kd of less than 0.001 nM, a koff of less than 1e-07 s⁻¹ and a kon of 436000 M⁻¹ s⁻¹.

B8: the Kd was determined as 0.261 nM, the koff was 0.000178 s⁻¹ and the kon amounted to 683000 M⁻¹ s⁻¹.

As a reminder, the EC50 is the midpoint of the concentration-response curve. The Kd is the concentration at which binding is half-saturated. A word on the koff: it is the first-order rate constant of dissociation. By kon is commonly meant a measure of how fast the partners come together.
